One may read the IC50 as the concentration that inhibits the measured activity by half. As a reminder, the Kd is a measure of binding affinity in units of concentration. As a reminder, the koff is the first-order rate constant of dissociation. High values mean fast dissociation, low ones slow dissociation. Broadly, the kon is a measure of how fast the partners come together. A lower kon goes with slower complex formation.

Results on 6 molecules are retold here after patent US20250122303A1 (HUMMINGBIRD BIOSCIENCE PTE, published 2025).

For test [1], the target named is T1, His-tagged human HER3 (human, UniProt P21860 20-643).
T1 construct: Antigen of the BLI experiments and of the HER2-Fc dimerisation ELISA; also called HER3 His; not shown: His tag
As to the kind of experiment: plate ELISA dimerisation assay; HER2-Fc coated, constant HER3 His and NRG, antibody varied; blocked partner HER2-Fc. As for the experimental part: Plate-based ELISA dimerisation assays were carried out according to standard protocols. Plates were coated with 1 μg/ml HER2-Fc protein. […] Plates were then washed and incubated for 1 hour with secondary anti-HIS HRP antibody. […] The absorbance was read at 450 nm.

Test [2] has as its target T1, His-tagged human HER3. As to the kind of experiment: BLI (Octet QK384), antibody on anti-human IgG capture tips, His-tagged human HER3 in solution, global one-site fit. The procedure: The anti-HER3 antibody clones in IgG1 format were analysed for binding affinity to human HER3. Bio-Layer Interferometry (BLI) experiments were performed using the Octet QK384 system (ForteBio). anti-Human IgG Capture (AHC) Octet sensor tips (Pall ForteBio, USA) were used to anti-HER3 antibodies (25 nM). All measurements were performed at 25° C. with agitation at 1000 rpm. […] Sensograms were referenced for buffer effects and then fitted using the Octet QK384 user software (Pall ForteBio, USA). Kinetic responses were subjected to a global fitting using a one site binding model to obtain values for association (Kₒₙ), dissociation (Koff) rate constants and the equilibrium dissociation constant (KD). Only curves that could be reliably fitted with the software (R²>0.90) were included in the analysis.

The target in test [3] is T2, His-tagged FcγRIIIa (V158) (human, UniProt P08637 17-208).
T2 construct: not shown: His tag
Nature of the test: Bio-Layer Interferometry; His-tagged FcγRIIIa (V158) on anti-Penta-HIS tips, antibody in solution. As for the experimental part:
All measurements were performed at 25° C. with agitation at 1000 rpm. […] Sensograms were referenced for buffer effects and then fitted using the Octet QK384 user software (Pall ForteBio, USA). Kinetic responses were subjected to a global fitting using a one site binding model to obtain values for association (Kₒₙ), dissociation (Koff) rate constants and the equilibrium dissociation constant (KD). Only curves that could be reliably fitted with the software (R²>0.90) were included in the analysis.
BLI was performed as described above.
Background: BLI is a label-free optical method that tracks binding on a fibre tip over time.

In test [4] the target is T3, human HER3 expressed on cells (HEK293 HER3 O/E cells) (human, UniProt P21860 20-1342).
T3 construct: Also used here for HER3 on U2OS cells of the PathHunter kit and on cancer cell lines; also called HEK293 cells transfected with vector encoding human HER3; human HER3-expressing cells
As to the kind of experiment: flow cytometry, HEK293 and HEK293 cells overexpressing human HER3, 20 ug/ml antibody, FITC anti-Fc secondary. The procedure:
The cells were washed thrice with FACS buffer (PBS with 5 mM EDTA and 0.5% BSA) and resuspended in FITC-conjugated anti-FC antibody (Invitrogen, USA) for 40 min at 2-8° C. Cells were washed again and resuspended in 200 μL of FACS flow buffer (PBS with 5 mM EDTA) for flow cytometric analysis using MACSQuant 10 (Miltenyi Biotec, Germany). After acquisition, all raw data were analyzed using Flowlogic software. Cells were gated using forward and side scatter profile percentage of positive cells was determined for native and overexpressing cell populations.
On the technique in general: Flow cytometry measures light scatter and fluorescence of single cells or particles in a stream.

A further test addresses T4, moFcRn (mouse, UniProt Q61559).
T4 construct: recombinant; also called mouse FcRn; gene FCGRT (so in the source)
T4 sequence (receptor, looked up): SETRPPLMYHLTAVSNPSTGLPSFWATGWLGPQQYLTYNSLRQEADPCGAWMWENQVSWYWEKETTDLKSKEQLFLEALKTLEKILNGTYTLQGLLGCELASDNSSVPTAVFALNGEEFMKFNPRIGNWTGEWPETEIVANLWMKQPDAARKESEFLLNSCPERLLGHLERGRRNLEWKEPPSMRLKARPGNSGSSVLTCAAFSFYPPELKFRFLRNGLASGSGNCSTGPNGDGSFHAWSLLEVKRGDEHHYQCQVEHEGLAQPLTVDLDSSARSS
T4 sequence (looked up): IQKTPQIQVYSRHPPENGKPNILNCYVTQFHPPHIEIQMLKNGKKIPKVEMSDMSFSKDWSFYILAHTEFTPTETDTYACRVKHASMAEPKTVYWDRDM
As to the kind of experiment: Bio-Layer Interferometry (determined as described in Example 7).

The target of the next test is T5, FcRn (human, UniProt P55899).
T5 construct: recombinant; also called human FcRn; gene FCGRT (so in the source)
The description is as above.

Test [5] addresses T1, His-tagged human HER3. Nature of the test: Bio-Layer Interferometry (Octet QK384); antibody on anti-Human IgG Capture tips, HIS-tagged human HER3 at 30.3, 60.5, 121 and 242 nM.
The next test deals with T6, moFcgRIV.
T6 construct: also called CD16-2; mFcγRIV
T6 chain: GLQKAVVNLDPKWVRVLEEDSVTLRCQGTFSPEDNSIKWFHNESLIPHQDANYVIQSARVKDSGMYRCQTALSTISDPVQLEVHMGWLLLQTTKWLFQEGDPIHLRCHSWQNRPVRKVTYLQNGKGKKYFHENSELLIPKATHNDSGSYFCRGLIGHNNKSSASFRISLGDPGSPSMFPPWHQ
As to the kind of experiment: Bio-Layer Interferometry (determined as described in Example 7).

The target of a further test is T7, FcgRIIA (H167) (human, UniProt P12318).
T7 construct: recombinant; also called CD32A; hFcγRIIa167H
T7 sequence (receptor, looked up): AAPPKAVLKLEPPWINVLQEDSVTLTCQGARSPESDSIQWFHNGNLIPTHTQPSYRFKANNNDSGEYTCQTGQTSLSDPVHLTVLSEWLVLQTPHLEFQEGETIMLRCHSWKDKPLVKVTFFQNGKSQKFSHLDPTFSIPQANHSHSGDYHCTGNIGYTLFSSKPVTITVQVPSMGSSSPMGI
The test is described as above.

A further test addresses T8, FcgRIIA (R167) (human, UniProt P12318).
T8 construct: recombinant; also called CD32A; hFcγRIIa167R
T8 sequence (receptor, looked up): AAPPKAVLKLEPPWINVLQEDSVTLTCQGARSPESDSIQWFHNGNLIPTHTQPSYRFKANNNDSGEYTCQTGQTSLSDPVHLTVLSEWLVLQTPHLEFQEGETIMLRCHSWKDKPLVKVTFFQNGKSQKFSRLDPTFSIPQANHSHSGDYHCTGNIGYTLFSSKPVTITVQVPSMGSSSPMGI
The test is described as above.

For a further test, the target named is T9, FcgRIIIA (F158) (human, UniProt P08637).
T9 construct: recombinant; also called CD16A; hFcγRIIIa158F
Described as above.

In another test the target is T10, FcgRIIB (human, UniProt P31994).
T10 construct: recombinant; also called CD32B; hFcγRIIb
T10 sequence (receptor, looked up): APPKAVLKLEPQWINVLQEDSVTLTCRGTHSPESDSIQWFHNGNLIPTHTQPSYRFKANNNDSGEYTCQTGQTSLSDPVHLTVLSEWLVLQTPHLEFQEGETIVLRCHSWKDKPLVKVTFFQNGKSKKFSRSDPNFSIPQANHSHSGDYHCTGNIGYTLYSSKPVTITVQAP
The test is described as above.

In test [6] the target is T2, His-tagged FcγRIIIa (V158). The test is described as above.

B1: M-05-74 (antibody, V domains shown)
VH: QVQLQQSGAELAKPGASVKMSCKTSGYTLTDYWIHWVKQRPGQGLEWIGYINPYTGYTESNQKFKDKATLTADKSSNTAYIQLSSLTSEDSAVYYCARPYYYGDYWGQGTTLTVSS
VL: QIVLTQSPAIMSASPGERVTITCSASSSVSYMHWFQQKPGTSPKLLIYSTSNLASGVPARFSGSGSGTSYSLTISRMEAEDAATYYCQQRSSYPFTFGSGTKLEIK
Molecule B1 yielded an IC50 in the test with His-tagged human HER3 [1] of 80.2 nM.

B2: anti-HER3 clone 4-35-B4 IgG1 (antibody, V domains shown)
VH: EVQLQQSGAELVKPGASVKLSCTASGFNIKDTYIHWVKQRPDQGLEWIGKIIDPANGNTNYDPKFQGKATITADTSSNTAYLQLSSLSSEDTAVYFCARGLHWGQGTTLTVSS
VL: DIVLTQSPASLAVSLGQRATISCRASKSVSTSGYSYMHWYQQKPGQPPKLLIYLASNLESGVPARFSGSGSGTDFTLNIHPVEEEDAATYYCQHSRELPYTFGGGTKLEIKR
notes: Human-mouse chimeric IgG1/kappa
In turn, B2 had a Kd with His-tagged human HER3 [2] of 50.3 nM.

B3: 10D1 GASD variant (antibody, human IgG1, kappa)
heavy: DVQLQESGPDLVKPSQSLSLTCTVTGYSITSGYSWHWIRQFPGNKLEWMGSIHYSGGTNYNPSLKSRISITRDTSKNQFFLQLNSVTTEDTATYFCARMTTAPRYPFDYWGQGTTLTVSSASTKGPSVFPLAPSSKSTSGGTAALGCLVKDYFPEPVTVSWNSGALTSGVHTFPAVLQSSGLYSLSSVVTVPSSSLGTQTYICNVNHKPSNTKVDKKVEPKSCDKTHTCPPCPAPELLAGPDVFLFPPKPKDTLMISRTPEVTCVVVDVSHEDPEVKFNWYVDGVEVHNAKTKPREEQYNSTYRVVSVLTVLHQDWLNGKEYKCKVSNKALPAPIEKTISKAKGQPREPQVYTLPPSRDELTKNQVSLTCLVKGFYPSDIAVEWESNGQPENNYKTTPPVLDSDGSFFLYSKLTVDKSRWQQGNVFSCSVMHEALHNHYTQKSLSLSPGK
light: DIVMTQSQKFMSTSVGDRVSVTCKASQIVGSNVAWYQQKPGQSPKPLIYSASYRYSGVPDRFTASGSGTDFTLTITNVQSEDLAEYFCQQYSSHPLTFGAGTKLELKRTVAAPSVFIFPPSDEQLKSGTASVVCLLNNFYPREAKVQWKVDNALQSGNSQESVTEQDSKDSTYSLSSTLTLSKADYEKHKVYACEVTHQGLSSPVTKSFNRGEC
notes: also called Fc-modified anti-HER3 antibody clone 10D1 comprising GASD substitutions in CH2 region
Turning to B3, in test [3], binding was characterised by a dissociation constant (Kd) of 58 nM, the koff stood at 0.009 s⁻¹ and the kon came to 160000 M⁻¹ s⁻¹.

B4: anti-HER3 clone 10A6 IgG1 (antibody, V domains shown)
VH: DVQLQESGPGLVKPSQSLSLTCSVTGNFITSGYFWNWIRQFPGNKLEWMGFISYDGSNNYKPSLKNRISITRDTSKNQFFLKLNSVTTEDTATYYCARENYGFGFDYWGQGTTLTVSS
VL: DIVLTQSPSSLPVSIGEKVTMSCKSSQSLLYSDNQKNYLAWYQQKPGQSPKLLIYWASTWKSGVPDRFTGSGSGTDFTLTISSVKAEDLAVYYCQQYFTFPWTFGGGTKLEIKR
notes: as for B2
As for B4, in [4], the binding result is recorded as “binds”.

B5: 10D1F hIgG1 N297Q (antibody)
heavy chain: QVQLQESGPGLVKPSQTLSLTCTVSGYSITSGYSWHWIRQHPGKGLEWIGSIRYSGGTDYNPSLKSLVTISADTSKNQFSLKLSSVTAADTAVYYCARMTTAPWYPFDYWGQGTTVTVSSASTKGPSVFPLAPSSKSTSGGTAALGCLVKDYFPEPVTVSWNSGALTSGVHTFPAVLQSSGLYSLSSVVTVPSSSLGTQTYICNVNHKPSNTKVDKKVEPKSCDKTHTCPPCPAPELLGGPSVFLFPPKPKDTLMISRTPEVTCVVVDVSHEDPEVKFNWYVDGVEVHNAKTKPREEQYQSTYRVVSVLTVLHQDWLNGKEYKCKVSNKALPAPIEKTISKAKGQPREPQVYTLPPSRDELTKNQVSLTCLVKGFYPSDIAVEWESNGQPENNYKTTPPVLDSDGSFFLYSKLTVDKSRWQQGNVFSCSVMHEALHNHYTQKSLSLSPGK
light chain: DIQMTQSPSSVSASVGDRVTITCKASQIVGSNVAWYQQKPGKAPEPLIYSASYLYSGVPSRFSGSGSGTDFTLTISSLQPEDFATYYCQQYSSHPLTFGQGTKLEIKRTVAAPSVFIFPPSDEQLKSGTASVVCLLNNFYPREAKVQWKVDNALQSGNSQESVTEQDSKDSTYSLSSTLTLSKADYEKHKVYACEVTHQGLSSPVTKSFNRGEC
Consider B5, for which the figures for the Kd with moFcRn and with FcRn were 13.7 nM and 54.6 nM, respectively.

B6: 10D1F.FcB (antibody, human IgG1, kappa)
heavy: QVQLQESGPGLVKPSQTLSLTCTVSGYSITSGYSWHWIRQHPGKGLEWIGSIRYSGGTDYNPSLKSLVTISADTSKNQFSLKLSSVTAADTAVYYCARMTTAPWYPFDYWGQGTTVTVSSASTKGPSVFPLAPSSKSTSGGTAALGCLVKDYFPEPVTVSWNSGALTSGVHTFPAVLQSSGLYSLSSVVTVPSSSLGTQTYICNVNHKPSNTKVDKKVEPKSCDKTHTCPPCPAPELLAGPDVFCFPPKPKDTLMISRTPEVTCVVVDVSHEDPEVKFNWYVDGVEVHNAKTKPREEQYNSTYRVVSVLTVLHQDWLNGKEYKCKVSNKALPLPEECTISKAKGQPREPQVYTLPPSRDELTKNQVSLTCLVKGFYPSDIAVEWESNGQPENNYKTTPPVLDSDGSFFLYSKLTVDKSRWQQGNVFSCSVMHEALHNHYTQKSLSLSPGK
light: DIQMTQSPSSVSASVGDRVTITCKASQIVGSNVAWYQQKPGKAPEPLIYSASYLYSGVPSRFSGSGSGTDFTLTISSLQPEDFATYYCQQYSSHPLTFGQGTKLEIKRTVAAPSVFIFPPSDEQLKSGTASVVCLLNNFYPREAKVQWKVDNALQSGNSQESVTEQDSKDSTYSLSSTLTLSKADYEKHKVYACEVTHQGLSSPVTKSFNRGEC
notes: also called 10D1F.B
With B6, the Kd in the test with His-tagged human HER3 [5] came out at 0.0222 nM; in the test with moFcRn, 15.2 nM; with moFcgRIV, 55.4 nM; with FcgRIIA (H167), 561 nM; with FcgRIIA (R167), 400 nM; with FcgRIIIA (F158) it was 162 nM. In addition, the Kd with FcgRIIB was 580 nM; in [6] it was 82.1 nM; in the test with FcRn it was 37.4 nM. Also, the koff with His-tagged human HER3 [5] worked out at 4.96e-06 s⁻¹. In addition, in the test with His-tagged human HER3 [5], the kon is 223000 M⁻¹ s⁻¹.
